The record followed here is patent US20170081417A1 (Kyowa Kirin, published 2017).

The target of assay [1] is T1, human OX40 (CD134), full length, expressed on cells (activated human T cells); EL4-OX40 and CHO-OX40 … (human, UniProt P43489 29-277).
T1 sequence: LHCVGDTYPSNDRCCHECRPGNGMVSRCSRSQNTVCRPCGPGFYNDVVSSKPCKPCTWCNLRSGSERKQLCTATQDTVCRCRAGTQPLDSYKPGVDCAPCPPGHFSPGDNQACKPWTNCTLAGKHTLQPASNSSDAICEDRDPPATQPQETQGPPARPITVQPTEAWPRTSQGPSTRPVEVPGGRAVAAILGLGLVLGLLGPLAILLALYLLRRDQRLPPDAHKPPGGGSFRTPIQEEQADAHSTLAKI
The assay is described as follows: cell-based or functional assay.

The target of assay [2] is T2, human OX40 extracellular domain fused to the Fc portion of human IgG1 (hOX40:hFc) (human).
T2 construct: Made in Tn5 insect cells; also called OX40-hIgG1; human OX40:hIgG1 fusion protein
T2 sequence (chain, as listed by the source limits assumed): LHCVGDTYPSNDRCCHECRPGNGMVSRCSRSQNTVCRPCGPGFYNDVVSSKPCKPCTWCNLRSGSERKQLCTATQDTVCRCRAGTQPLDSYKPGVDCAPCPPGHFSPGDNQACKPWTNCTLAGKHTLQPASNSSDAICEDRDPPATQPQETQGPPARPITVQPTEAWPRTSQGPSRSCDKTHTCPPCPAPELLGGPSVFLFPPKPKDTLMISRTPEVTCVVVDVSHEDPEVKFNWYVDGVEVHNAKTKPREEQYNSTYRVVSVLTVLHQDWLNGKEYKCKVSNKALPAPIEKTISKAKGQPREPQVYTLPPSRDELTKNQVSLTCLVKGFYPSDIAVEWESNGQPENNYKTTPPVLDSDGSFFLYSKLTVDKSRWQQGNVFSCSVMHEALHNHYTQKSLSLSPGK
Kind of assay: ELISA, OX40L-FLAG binding to coated hOX40:hFc, anti-FLAG-HRP. On the procedure:
(§1) The ability of 112F32, 112V8, 112Y131, 112Y55, and 112Z5 to block soluble hOX40L binding to coated hOX40:hFc fusion protein was tested using an ELISA protocol (FIG. 5A, Table 3). The plates were coated with hOX40:hFc and after blocking non-specific sites the anti-OX40 antibodies were allowed to bind. Without washing OX40L-FLAG was added to the wells. Bound ligand was detected with anti-FLAG-HRP secondary antibody. Percent inhibition was determined using the following formula (100−(OD sample/OD maximum OX40L binding))*100. 112V8, 112Y55, and 112Y131 prevented 85% of the binding of soluble OX40L to hOX40:hFc. 112F32 prevented approximately 70% of the binding of soluble hOX40L to hOX40:hFc and 112Z5 blocked 67% of the maximal binding.
On the technique in general: In an ELISA, binding on a coated surface is turned into a signal by an enzyme label.

The target of assay [3] is T2, human OX40 extracellular domain fused …. The assay is described as follows: ELISA, blocking of OX40L-FLAG binding to coated hOX40:hFc. On the procedure:
as §1

For assay [4], the target named is T1, human OX40 (CD134), full length, …. Kind of assay: flow cytometry titration on activated human T cells, anti-human IgG-PE. On the procedure:
(§2) Following twenty minute incubation on ice, the cells were washed once and fixed ten minutes with 1% paraformaldehyde. After a final wash the cells were resuspended in staining buffer and the samples were acquired using FACScan or FACS Calibur flow cytometers (Becton Dickinson Biosciences, Palo Alto, Calif.), and the data were analyzed using Cellquest (Becton Dickinson Biosciences) or Flow Jo (TreeStar, Inc., San Carlos, Calif.) software. The activated T cells were also stained with mouse anti-human OX40 antibody L106 (Becton Dickinson), which was directly conjugated to phycoerythrin or whose binding was detected with anti-mouse IgG-PE (Southern Biotechnology Associates.) OX40L Blocking Assays: To determine if the anti-human OX40 antibodies could block OX40L binding to soluble OX40 both ELISA and flow cytometric protocols were used. In the ELISA 96 well Nunc flat bottom plates were coated with recombinant soluble hOX40:hFc at 2 μg/ml in carbonate buffer (pH9.4) for one hour at 37° C. The plates were washed with PBS/0.1% Tween 20 and Superblock (Pierce) was added to the wells to block non-specific binding. The test antibodies were diluted to 1 μg/ml in PBS/Tween and added to the plates. After one hour incubation at 37° C., FLAG tagged recombinant soluble human OX40L (Alexis Biochemicals, San Diego, Calif.) was added to the appropriate wells without washing out the anti-OX40 antibodies. Following one hour incubation, the plates were washed and an anti-FLAG-peroxidase conjugated antibody (Sigma) was added to the wells for one hour at 37° C. The TMB substrate was added, after ten minutes the reaction was stopped with H₂SO₄, and the results were read at 450 nm using a microplate reader. In the flow cytometric assay, human CD4+ T cells were purified and activated with PHA+IL2 for two days. The cells were washed and resuspended in staining buffer and then incubated with increasing amounts of human anti-human OX40 antibodies for twenty minutes on ice, from 0.005-50 μg/ml. Soluble recombinant OX40L-FLAG was then added to the cells. The cells were washed and incubated with anti-FLAG conjugated to PE (Sigma). After another wash, the cells were fixed with 1% paraformaldehyde and analyzed on a FACScan or FACScalibur.
A general note: A flow cytometer gives signals particle by particle.

Assay [5] has the same target. The assay is described as follows: flow cytometry, blocking of OX40L-FLAG binding to activated human T cells.
Source text: as §2, with “The” for “Following twenty minute incubation on ice, the cells were washed once and fixed ten minutes with 1% paraformaldehyde. After a final wash the cells were resuspended in staining buffer and the samples were acquired using FACScan or FACS Calibur flow cytometers (Becton Dickinson Biosciences, Palo Alto, Calif.), and the data were analyzed using Cellquest (Becton Dickinson Biosciences) or Flow Jo (TreeStar, Inc., San Carlos, Calif.) software. The”
Slightly different results were obtained when a flow cytometric based assay was used to monitor blockade of soluble OX40L binding to activated human T cells that express OX40 (FIG. 5B). Activated human T cells were labeled with anti-OX40 antibodies followed by soluble flag tagged-human OX40L. Binding of OX40L was detected with anti-FLAG-PE antibody. Percent inhibition was determined using the same formula, i.e., (100−(sample/maximum binding))*100.

B1: 112Y55 human anti-human OX40 monoclonal antibody (hybridoma ATCC No. PTA-7220) (antibody, V domains shown)
VH: QITLKESGPTLVKPTQTLTLSCTFSGFSLSTSGVGVGWIRQPPGKALEWLALIHWDDAERYSPSLKSRLTITKDTSKNQVVLTMTNMDLVDTATYYCAHTRGAFDIWGQGTMVTVSS
VL: EIVLTQSPGTLSLSPGERAILSCRASQSVSSSFLAWYQQKPGQAPRLLIYGAFSRATGIPDRFSGSGSGTDFTLTISRLEPEDFAVYYCQQYDSSRTFGQGTKVEIK
With B1, the “ADCC % Lysis at 10 µg/ml” value in assay [1] is 54.2%. Also, the “percent inhibition of OX40L binding” value in assay [2] was found to be 85%. For the same molecule, the figures for the IC50 in assay [3] and in assay [5] were 0.073 µg/mL and 0.9 µg/mL, respectively. Further, in assay [4], the “BMAX Geo Mean” value is 162 geometric mean fluorescence. Binding in assay [4] was put at a Kd of 14 nM.

B2: 112Y131 human anti-human OX40 monoclonal antibody (hybridoma ATCC No. PTA-7218) (antibody, V domains shown)
VH: QITLKESGPTLVKPTQTLTLTCTFSGFSLSTSGVGVGWIRQPPGKALEWLALIYWDDHSPYSPSLKSRLTITKDTSKNQVVLTMTNMDPVDTATYYCARTRGAFDIWGQGTMVTVSS
VL: EIVLTQSPATLSLSPGERATLSCRASQGVSSYLAWYQQKPGQAPRLLIYDASNRATGIPARFSGSGPGTDFTLTISSLEPEDFAVYYCQQRSNWHPTFGQGTKVEIK
In the case of B2, in assay [1], the “ADCC % Lysis at 10 µg/ml” value was 18%. In addition, the “percent inhibition of OX40L binding” value in assay [2] is 85%. For the same molecule, the IC50 (commonly the midpoint of a concentration-inhibition curve) was determined as 0.069 µg/mL in assay [3] and 0.91 µg/mL in assay [5]. In assay [4], the “BMAX Geo Mean” value is 171 geometric mean fluorescence. Binding in assay [4] was put at a Kd of 25 nM.
